Residue numbers refer to the chain shown, from its start.
T1: Cynomolgus CD3εδ Fc heterodimer (Cy CD3ε Fc / CD3δ Fc-HIS) (cynomolgus, UniProt Q95LI8 22-100)
T1 chain 1: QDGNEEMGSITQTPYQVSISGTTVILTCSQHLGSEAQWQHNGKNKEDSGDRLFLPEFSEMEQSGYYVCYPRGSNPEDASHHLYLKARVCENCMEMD
T1 chain 2: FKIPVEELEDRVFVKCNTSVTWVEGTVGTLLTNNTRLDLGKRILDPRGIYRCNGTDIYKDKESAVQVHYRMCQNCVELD

B1: SAD10318_P03_A08 (ADI-57283) (antibody, V domains shown)
VH: QVQLVQSGAEVKKPGASVKVSCKASGFNIKDYYMHWVRQAPGQRLEWMGWIDLENANTIYDAKFQGRVTITRDTSASTAYMELSSLRSEDTAVYYCARDAYGRYHYDHWGQGTLVTVSS
VL: DIVMTQSPDSLAVSLGERATINCKSSQSLLNARTGHNHLAWYQQKPGQPPKLLIYWASTRESGVPDRFSGSGSGTDFTLTISSLQAEDVAVYYCKQSYSRRTFGGGTKVEIK
notes: IgG; also called Ab195
B2: SAD10318_P03_F09 (ADI-57286) (antibody, V domains shown)
VH: B1 VH with R103H, H108V
VL: B1 VL with R33H, T34P, H36K, H38Y, K95H, S99H
notes: IgG; also called Ab208
B3: SAD10319_P02_F05 (ADI-57317) (antibody, V domains shown)
VH: QVQLVQSGAEVKKPGASVKVSCKASGYTFNNYAMHWVRQAPGQRLEWMGWIDAGTGNTDYSQKFQGRVTITRDTSASTAYMELSSLRSEDTAVYYCARDAHHRYFYDVWGQGTLVTVSS
VL: B1 VL with H36K, H38Y
notes: IgG; also called Ab5
B4: SAD10319_P01_E01 (ADI-57298) (antibody, V domains shown)
VH: B3 VH with N30D, N31A, N57A, D59A, A100H, H101Y, H102G, R103H
VL: B1 VL with H36K, H38Y
notes: IgG; also called Ab232
B5: SAD10319_P02_G05 (ADI-57318) (antibody, V domains shown)
VH: B3 VH with N30T, N31Q, A33T, W50S, N57A, D59K, H101Y, R103H
VL: B1 VL with H36K, H38Y
notes: IgG; also called Ab6
B6: SAD10318_P03_G09 (ADI-57287) (antibody, V domains shown)
VH: B1 VH with A100H, R103H, H105F, H108V
VL: B1 VL with R33H, H38Y, K95H, R100H
notes: IgG; also called Ab209
B7: SAD10318_P04_E10 (ADI-57288) (antibody, V domains shown)
VH: B1 VH
VL: DIVMTQSPDSLAVSLGERATINCKSSQSLLNARTGHNYLAWYQQKPGQPPKLLISGSTRESGVPDRFSGSGSGTDFTLTISSLQAEDVAVYYCHQSYHRRTFGGGTKVEIK
notes: IgG; also called Ab212
B8: SAD10319_P02_D05 (ADI-57316) (antibody, V domains shown)
VH: B3 VH with N31D, E46A, D59Y, H102G, R103H
VL: B1 VL with H36K, H38Y
notes: IgG; also called Ab258
B9: SAD10318_P04_F11 (ADI-57293) (antibody, V domains shown)
VH: B1 VH with I29T, Y101H, H108V
VL: B1 VL
notes: IgG; also called Ab221
B10: SAD10318_P04_F10 (ADI-57289) (antibody, V domains shown)
VH: B1 VH with G102H, H108V
VL: B1 VL with G35H, H36K
notes: IgG; also called Ab213
B11: SAD10319_P01_B03 (ADI-57305) (antibody, V domains shown)
VH: B3 VH with N31A, D52N, A53P, G54D, N57A, D59T, H101Y, R103H
VL: B1 VL with H36K, H38Y
notes: IgG; also called Ab243
B12: SAD10318_P04_D10 (ADI-48613) (antibody, V domains shown)
VH: B1 VH with R103H, H108V
VL: B1 VL with N31H, H36K
notes: IgG; also called Ab211
B13: SAD10319_P01_D01 (ADI-48622) (antibody, V domains shown)
VH: B3 VH with N30K, N31S, A33D, D59K, H101Y, H102G
VL: B1 VL with H36K, H38Y
notes: IgG; also called Ab231
B14: SAD10319_P02_C05 (ADI-57315) (antibody, V domains shown)
VH: B3 VH with N30T, N31D, A33N, D52N, A53P, G54L, N57T, D59K, H101Y, R103H
VL: B1 VL with H36K, H38Y
notes: IgG; also called Ab257
B15: SAD10319_P01_C01 (ADI-48621 and ADI-48636) (antibody, V domains shown)
VH: B3 VH with N30T, N31D, A33D, N57L, D59K, A100H, H101Y, H102G, R103H
VL: B1 VL with H36K, H38Y
notes: IgG; also called Ab230
B16: SAD10319_P01_H02 (ADI-48625) (antibody, V domains shown)
VH: B3 VH with N30T, N31D, D52N, A53P, G54S, N57A, D59V, H101Y, R103H
VL: B1 VL with H36K, H38Y
notes: IgG; also called Ab242
B17: SAD10319_P02_B06 (ADI-57321) (antibody, V domains shown)
VH: QVQLVQSGAEVKKPGASVKVSCKASGYTFTSYTMHWVRQAPGQRPEWMGSINAGTGFTDYSQKFQGRVTITRDTSASTAYMELSSLRSEDTAVYYCARDHYGHYFYDVWGQGTLVTVSS
VL: B1 VL with H36K, H38Y
notes: IgG; also called Ab9
B18: SAD10319_P01_C02 (ADI-57302) (antibody, V domains shown)
VH: B3 VH with N30T, N31E, A33N, D52N, A53P, G54L, D59L, H101Y, R103H
VL: B1 VL with H36K, H38Y
notes: IgG; also called Ab238
B19: SAD10318_P04_E11 (ADI-57292) (antibody, V domains shown)
VH: B1 VH with R103H, H105F
VL: B1 VL with K95H, R100H
notes: IgG; also called Ab220
B20: SAD10319_P02_H04 (ADI-57313) (antibody, V domains shown)
VH: B3 VH with N30T, N31S, D52N, A53P, G54D, N57A, D59K, H102G, R103H
VL: B1 VL with H36K, H38Y
notes: IgG; also called Ab254
B21: SAD10319_P02_B04 (ADI-57308) (antibody, V domains shown)
VH: B3 VH with N30A, N31D, D52N, A53P, N57S, D59K, H101Y, H102G, R103H, V108H
VL: B1 VL with H36K, H38Y
notes: IgG; also called Ab249
B22: SAD10318_P04_G11 (ADI-57294) (antibody, V domains shown)
VH: B1 VH with T74A, G102H, H108V
VL: B1 VL with R33H, H36K, Y98H
notes: IgG; also called Ab222
B23: SAD10318_P04_G12 (ADI-57296) (antibody, V domains shown)
VH: B1 VH with R103H, H108V
VL: B1 VL with R33H, H36K
notes: IgG; also called Ab227
B24: SAD10319_P01_F02 (ADI-48624) (antibody, V domains shown)
VH: B17 VH with T30E, T33D, P45L, S50W, N52D, F57N, D59K, R72A, T74E, A76T
VL: B1 VL with H36K, H38Y
notes: IgG; also called Ab241
B25: SAD10318_P03_B08 (ADI-57284) (antibody, V domains shown)
VH: B1 VH with A100H, G102H, H105F, H108V
VL: B1 VL with R33H, H38Y, K95H, R100H
notes: IgG; also called Ab196
B26: SAD10319_P02_C04 (ADI-57309) (antibody, V domains shown)
VH: B3 VH with N30E, N31S, A33S, D52N, A53P, G54A, N57A, H101Y, R103H
VL: B1 VL with H36K, H38Y
notes: IgG; also called Ab250
B27: SAD10319_P02_A05 (ADI-48629) (antibody, V domains shown)
VH: B17 VH with T30D, T33A, P45L, S50W, A53P, G54N, F57A, D59T
VL: B1 VL with H36K, H38Y
notes: IgG; also called Ab255
B28: SAD10319_P02_A04 (ADI-57307) (antibody, V domains shown)
VH: B17 VH with T30D, T33S, P45L, S50W, A53P, G54D, F57A
VL: B1 VL with H36K, H38Y
notes: IgG; also called Ab247
B29: SAD10319_P02_D06 (ADI-48631) (antibody, V domains shown)
VH: B3 VH with N30T, N31D, D52N, N57A, D59I, H101Y, R103H
VL: B1 VL with H36K, H38Y
notes: IgG; also called Ab11
B30: SAD10319_P02_H05 (ADI-57319) (antibody, V domains shown)
VH: B3 VH with N30T, N31Q, A33S, D52N, N57D, D59V, A100H, H102G
VL: B1 VL with L30F, H36K, H38Y
notes: IgG; also called Ab7
B31: SAD10318_P03_G08 (ADI-57285) (antibody, V domains shown)
VH: B1 VH with A100H, G102H, H105F, H108V
VL: B1 VL with N31H, H36K, Y98H, R100H
notes: IgG; also called Ab201
B32: SAD10318_P04_H10 (ADI-57290) (antibody, V domains shown)
VH: B1 VH with A100H, R103H, H105F, H108V
VL: B1 VL with R33H, H36K
notes: IgG; also called Ab214
B33: SAD10319_P01_G01 (ADI-57300) (antibody, V domains shown)
VH: QVQLVQSGAEVKKPGASVKVSCKASGYTFTSADMHWVRQAPGQRLQPMGWINAGTGATKYSQKFQGRVTITRDTSANTAYMELSSLRSEDTAVYYCARDAYGRYFYDVWGQGTLVTVSS
VL: B1 VL with H36K, H38Y
notes: IgG; ADI-57300 is also printed for Ab28; also called Ab234
B34: SAD10318_P04_H12 (ADI-57297) (antibody, V domains shown)
VH: B1 VH with Y101H, H105F, Y106H, H108V
VL: B1 VL with R33H, H36K, K95H, R100H
notes: IgG; also called Ab228
B35: SAD10319_P01_A01 (ADI-48619) (antibody, V domains shown)
VH: B3 VH with N30A, N31S, D52N, A53P, G54D, D59V, H101Y, R103H
VL: B1 VL with H36K, H38Y
notes: IgG; also called Ab229
B36: SAD10319_P02_D04 (ADI-57310) (antibody, V domains shown)
VH: B3 VH with N30T, N31S, E46Q, D59Y, H102G, R103H
VL: B1 VL with H36K, H38Y
notes: IgG; also called Ab251
B37: SAD10319_P02_B05 (ADI-57314) (antibody, V domains shown)
VH: B17 VH with T30A, S31D, T33A, P45L, F57N, D59Y, H100A
VL: B1 VL with H36K, H38Y
notes: IgG; also called Ab256
B38: SAD10319_P01_A02 (ADI-57301) (antibody, V domains shown)
VH: B17 VH with S31E, T33E, P45L, S50W, A53P, G54L, F57N, D59K
VL: B1 VL with H36K, H38Y
notes: IgG; also called Ab236
B39: SAD10319_P01_D03 (ADI-57306) (antibody, V domains shown)
VH: B3 VH with N30T, N31S, A33N, N57A, D59H, H101Y, R103H
VL: B1 VL with H36K, H38Y
notes: IgG; also called Ab245
B40: SAD10319_P01_D02 (ADI-57303) (antibody, V domains shown)
VH: B3 VH with N30T, N31E, A33D, L45P, N57A, D59V, H101Y, H102G, V108H
VL: B1 VL with H36K, H38Y
notes: IgG; also called Ab239
B41: SAD10319_P01_C03 (ADI-48626) (antibody, V domains shown)
VH: B33 VH with S31D, A32Y, Q46E, P47W, N52D, A53P, G54Y, N77S, R103H
VL: B1 VL with H36K, H38Y
notes: IgG; also called Ab244
B42: SAD10319_P01_F01 (ADI-57299) (antibody, V domains shown)
VH: B33 VH with T30Q, A32Y, P47W, A53P, G54T, A57N, K59V, N77S
VL: B1 VL with H36K, H38Y
notes: IgG; also called Ab233

Target: T1, Cynomolgus CD3εδ Fc heterodimer (Cy …)
Assay: BLI (Octet), IgG on AHC sensor, pH 6.0

Binder | koff [s⁻¹]
B1 | 0.006
B2 | 0.00139
B3 | 0.0262
B4 | 0.0281
B5 | 0.00475
B6 | 0.00559
B7 | 0.00245
B8 | 0.00296
B9 | 0.00183
B10 | 0.00436
B11 | 0.0245
B12 | 0.00251
B13 | 0.00946
B14 | 0.00697
B15 | 0.00402
B16 | 0.0314
B17 | 0.00531
B18 | 0.0251
B19 | 0.00256
B20 | 0.00313
B21 | 0.0203

Binder | koff [s⁻¹]
B22 | 0.00215
B23 | 0.0025
B24 | 0.00522
B25 | 0.00303
B26 | 0.0215
B27 | 0.0269
B28 | 0.0284
B29 | 0.0212
B30 | 0.019
B31 | 0.00544
B32 | 0.00284
B33 | 0.00249
B34 | 0.00254
B35 | 0.0328
B36 | 0.00322
B37 | 0.0388
B38 | 0.0165
B39 | 0.00221
B40 | 0.00686
B41 | 0.0196
B42 | 0.0179
